In patent publication EP4800035A1 (National Cancer Center, dated 2025):

T1: human interleukin-7 receptor (IL-7R) (human, UniProt P16871 21-459)
T1 construct: whole, on cells; Endogenous receptor on NALM6 and REH cells in flow cytometry; also called IL-7Ralpha; IL-7 Ralpha
T1 sequence (looked up): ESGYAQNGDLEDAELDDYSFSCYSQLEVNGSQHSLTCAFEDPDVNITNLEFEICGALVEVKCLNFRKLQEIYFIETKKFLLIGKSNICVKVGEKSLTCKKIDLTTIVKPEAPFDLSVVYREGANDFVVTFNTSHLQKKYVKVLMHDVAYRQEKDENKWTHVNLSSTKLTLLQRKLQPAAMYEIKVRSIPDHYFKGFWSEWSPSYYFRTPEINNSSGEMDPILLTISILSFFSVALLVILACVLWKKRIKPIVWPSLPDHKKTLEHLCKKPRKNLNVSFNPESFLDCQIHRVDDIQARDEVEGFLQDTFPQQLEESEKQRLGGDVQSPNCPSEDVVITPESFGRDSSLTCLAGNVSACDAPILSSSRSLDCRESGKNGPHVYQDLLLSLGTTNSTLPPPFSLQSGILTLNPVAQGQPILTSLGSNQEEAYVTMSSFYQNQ

B1: clone 24 chimeric antibody in the IgG1 format (antibody)
heavy: not shown
light: QIVLTQSPAIMSSFPGEKVTMTCSASSSVNYIHWYQQKSGTSPKRLIYDTSKLASGVPPRFSGSGSGTSYSLTISSMEAEDAATYYCQQWSRNPLTFGAGTKLELRRTVAAPSVFIFPPSDEQLKSGTASVVCLLNNFYPREAKVQWKVDNALQSGNSQESVTEQDSKDSTYSLSSTLTLSKADYEKHKVYACEVTHQGLSSPVTKSFNRGEC
notes: also called anti-human IL-7R antibody clone 24 (IgG1 format)
B2: clone 24 chimeric antibody in the IgG4 format (antibody)
heavy: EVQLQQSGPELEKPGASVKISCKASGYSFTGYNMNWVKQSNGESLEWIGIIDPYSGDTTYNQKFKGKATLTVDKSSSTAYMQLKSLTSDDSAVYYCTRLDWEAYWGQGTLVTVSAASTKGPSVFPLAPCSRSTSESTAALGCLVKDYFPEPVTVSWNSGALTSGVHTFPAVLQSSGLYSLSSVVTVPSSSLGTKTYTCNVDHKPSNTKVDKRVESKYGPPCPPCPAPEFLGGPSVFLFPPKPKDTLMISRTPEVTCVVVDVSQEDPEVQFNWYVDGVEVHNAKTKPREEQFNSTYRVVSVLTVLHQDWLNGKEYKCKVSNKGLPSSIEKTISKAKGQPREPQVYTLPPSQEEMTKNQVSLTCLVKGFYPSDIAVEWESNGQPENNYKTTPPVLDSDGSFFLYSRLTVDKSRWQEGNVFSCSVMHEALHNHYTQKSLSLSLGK
light: B1 light
notes: also called anti-human IL-7R antibody clone 24 (IgG4 format)
B3: clone 2D5 chimeric antibody in the IgG1 format (antibody)
heavy: not shown
light: DIVMTQSHKFMSTSVGDRVSITCKASQDVGIVVAWYQQKPGQSPKLLIYWASTRHTGVPDRFTGSGSGTDFTLTISNVQSEDLADYFCQQYSSYPLTFGAGTKLELRRTVAAPSVFIFPPSDEQLKSGTASVVCLLNNFYPREAKVQWKVDNALQSGNSQESVTEQDSKDSTYSLSSTLTLSKADYEKHKVYACEVTHQGLSSPVTKSFNRGEC
notes: also called anti-human IL-7R antibody clone 2D5 (IgG1 format)
B4: clone 2D5 chimeric antibody in the IgG4 format (antibody)
heavy: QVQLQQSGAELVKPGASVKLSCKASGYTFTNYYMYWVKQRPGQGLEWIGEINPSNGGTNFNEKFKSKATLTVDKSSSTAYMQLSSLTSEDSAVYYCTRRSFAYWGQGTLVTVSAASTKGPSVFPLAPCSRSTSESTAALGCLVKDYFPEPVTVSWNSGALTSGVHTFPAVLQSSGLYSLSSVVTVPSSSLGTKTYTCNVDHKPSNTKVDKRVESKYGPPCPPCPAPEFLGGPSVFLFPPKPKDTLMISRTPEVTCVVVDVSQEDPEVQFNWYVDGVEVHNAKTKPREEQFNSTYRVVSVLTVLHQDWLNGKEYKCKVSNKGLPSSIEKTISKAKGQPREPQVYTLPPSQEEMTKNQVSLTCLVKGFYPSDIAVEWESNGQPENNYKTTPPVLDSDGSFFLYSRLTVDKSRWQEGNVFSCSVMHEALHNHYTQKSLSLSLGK
light: B3 light
notes: also called anti-human IL-7R antibody clone 2D5 (IgG4 format)
B5: clone 577 chimeric antibody in the IgG1 format (antibody)
heavy: not shown
light: ETTVTQSPASLSMAMGEKVTIRCMTSTDINDDMNWYQQKPGEPPKLLISEGNTLRPGVPSRFSSSGYSTDFFFTIEYMLSEDVADYFCLQTDNLPLTFGAGTKLELRRTVAAPSVFIFPPSDEQLKSGTASVVCLLNNFYPREAKVQWKVDNALQSGNSQESVTEQDSKDSTYSLSSTLTLSKADYEKHKVYACEVTHQGLSSPVTKSFNRGEC
B6: clone 577 chimeric antibody in the IgG4 format (antibody)
heavy: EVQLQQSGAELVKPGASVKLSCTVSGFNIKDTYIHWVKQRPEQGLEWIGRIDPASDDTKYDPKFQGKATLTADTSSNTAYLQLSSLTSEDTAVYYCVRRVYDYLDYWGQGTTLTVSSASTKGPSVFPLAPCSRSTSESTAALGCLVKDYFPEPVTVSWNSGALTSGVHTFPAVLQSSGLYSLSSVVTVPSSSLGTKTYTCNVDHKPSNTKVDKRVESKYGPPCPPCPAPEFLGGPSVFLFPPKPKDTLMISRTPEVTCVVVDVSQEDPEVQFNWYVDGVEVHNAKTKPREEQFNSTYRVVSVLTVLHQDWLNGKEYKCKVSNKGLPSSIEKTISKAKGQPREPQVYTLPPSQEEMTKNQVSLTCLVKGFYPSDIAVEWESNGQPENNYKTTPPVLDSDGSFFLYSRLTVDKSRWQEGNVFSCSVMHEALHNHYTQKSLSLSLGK
light: B5 light

Experiments:
[1] = target: T1, human interleukin-7 receptor (IL-7R); assay: flow cytometry on NALM6 and REH cells (FIG. 2)
[2] = target: T1, human interleukin-7 receptor (IL-7R); assay: flow cytometry on NALM6 and REH cells (FIG. 5, human chimeric clone)

| Binder | binding result [1] | binding result [2] |
| --- | --- | --- |
| B1 | binds | – |
| B2 | binds | – |
| B3 | binds | – |
| B4 | binds | – |
| B5 | – | binds |
| B6 | binds | – |
